T1: human prolactin receptor on transfected FDC-P1 cells (human, UniProt P16471 25-622)
T1 sequence (looked up): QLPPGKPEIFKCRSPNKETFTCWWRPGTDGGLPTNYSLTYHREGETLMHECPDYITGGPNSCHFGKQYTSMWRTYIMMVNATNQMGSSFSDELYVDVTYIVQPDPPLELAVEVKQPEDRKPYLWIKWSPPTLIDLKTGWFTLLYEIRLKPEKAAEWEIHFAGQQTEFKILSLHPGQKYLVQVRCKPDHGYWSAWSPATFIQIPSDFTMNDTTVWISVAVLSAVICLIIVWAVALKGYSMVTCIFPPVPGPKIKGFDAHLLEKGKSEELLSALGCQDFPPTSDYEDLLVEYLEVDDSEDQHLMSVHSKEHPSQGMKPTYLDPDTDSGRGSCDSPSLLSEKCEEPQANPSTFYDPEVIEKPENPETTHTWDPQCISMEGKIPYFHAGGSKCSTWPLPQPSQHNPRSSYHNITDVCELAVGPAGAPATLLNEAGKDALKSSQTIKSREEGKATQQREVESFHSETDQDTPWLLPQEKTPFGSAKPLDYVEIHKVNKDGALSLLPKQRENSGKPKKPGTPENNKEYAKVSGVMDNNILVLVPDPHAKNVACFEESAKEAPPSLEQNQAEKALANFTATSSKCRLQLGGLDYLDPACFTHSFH

T2: extracellular domain of the human prolactin receptor (human, UniProt P16471 25-234)
T2 construct: extracellular domain; also called extracellular domain of the human lactogenic receptor; lactogenic receptor
T2 sequence (looked up): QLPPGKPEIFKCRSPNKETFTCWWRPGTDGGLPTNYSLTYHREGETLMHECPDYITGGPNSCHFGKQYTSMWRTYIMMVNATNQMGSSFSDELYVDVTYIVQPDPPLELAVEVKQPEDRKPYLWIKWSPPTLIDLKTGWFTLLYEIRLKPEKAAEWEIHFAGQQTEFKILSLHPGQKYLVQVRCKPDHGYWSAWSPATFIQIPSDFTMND


Tests used:
[1] = target: growth hormone receptor (FDC-P1 somatotrophic assay); assay: cell-based or functional assay
[2] = target: human prolactin receptor on transfected FDC-P1 cells (human) (UniProt P16471); assay: cell-based or functional assay
[3] = target: T1, human prolactin receptor on transfected …; assay: cell-based or functional assay
[4] = target: T2, extracellular domain of the human …; assay: SPR (BIACORE 3000), prolactin coupled to the chip through Cys 158, receptor ECD 50-800 nM, induced-fit model, site 2 (kd2)
Description: (§1) The extracellular domain of the human lactogenic receptor was flowed across the prolactin-linked chip surface at various concentrations and the binding kinetics followed by the optical bench. Human lactogenic receptor (extracellular domain) concentrations varied between 50 nM and 800 nM. […] A single receptor model was used for G129C human prolactin, where site 2 was blocked by the chemistry employed to couple the protein to the chip surface.
(§2) Rate constants were calculated from the association and dissociation curves, respectively, with concentrations of the extracellular domain of the human lactogenic receptor (50, 80, 100, 200, 500 and 800 nM).

[5] = target: T2, extracellular domain of the human …; assay: SPR (BIACORE 3000), prolactin coupled to the chip through Cys 158, receptor ECD 50-800 nM, induced-fit model, site 2 (KD2)
Description: as §1, §2

[6] = target: T2, extracellular domain of the human …; assay: SPR (BIACORE 3000), prolactin coupled to the chip through Cys 158, receptor ECD 50-800 nM, induced-fit model, site 1 (ka1)
Description: as §1, §2

[7] = target: T2, extracellular domain of the human …; assay: SPR, saturating equilibrium at 100 µM receptor ECD (FIG. 10, lower panel)
Description: Experiments were then performed in studies that measured the maximal binding of lactogenic receptor (the extracellular domain of the prolactin receptor prepared by recombinant DNA technology). The various prolactins were bound with high concentrations (100 μM) of extracellular domain of the human prolactin receptor.

[8] = target: T2, extracellular domain of the human …; assay: SPR (BIACORE 3000), prolactin coupled to the chip through Cys 158, receptor ECD 50-800 nM, induced-fit model, site 2 (ka2)
Description: as §1, §2

[9] = target: T2, extracellular domain of the human …; assay: SPR (BIACORE 3000), prolactin coupled to the chip through Cys 158, receptor ECD 50-800 nM, induced-fit model, site 1 (kd1); site 1 (kd1), prolactin coupled through Cys 158
Description: as §1, §2

[10] = target: T2, extracellular domain of the human …; assay: SPR (BIACORE 3000), prolactin coupled to the chip through Cys 158, receptor ECD 50-800 nM, induced-fit model, site 1 (KD1)
Description: as §1, §2

[11] = target: T2, extracellular domain of the human …; assay: SPR (BIACORE 3000), prolactin coupled to the chip through residue 129 (site 2 blocked), receptor ECD 50-800 nM, single-site model, site 1 (kd1)
Description: as §1, §2

[12] = target: T2, extracellular domain of the human …; assay: SPR (BIACORE 3000), prolactin coupled to the chip through residue 129 (site 2 blocked), receptor ECD 50-800 nM, single-site model, site 1 (KD1)
Description: as §1, §2

[13] = target: T2, extracellular domain of the human …; assay: SPR (BIACORE 3000), prolactin coupled to the chip through residue 129 (site 2 blocked), receptor ECD 50-800 nM, single-site model, site 1 (ka1)
Description: as §1, §2

ED50 (nM), FDC-P1 somatotrophic assay [1] [nM]	ED50 (nM), FDC-P1 lactogenic assay (cell proliferation, Alamar blue) [3] [nM]	Relative fold loss of activity, FDC-P1 lactogenic assay [3] [fold]	Molecule	also measured
0.234	–	–	L93E human growth hormone (from UniProt P01241 27-217) (ligand)	–
0.151	–	–	Y164E human growth hormone (from UniProt P01241 27-217) (ligand)	–
0.576	–	–	F44E human growth hormone (from UniProt P01241 27-217) (ligand)	–
0.0712	–	–	wild-type recombinant human growth hormone (from UniProt P01241 27-217) (ligand)	ED50 (nM), FDC-P1 lactogenic assay [2]: 1.76 nM
0.235	–	–	L163F human growth hormone (from UniProt P01241 27-217) (ligand)	–
0.186	–	–	Y160E human growth hormone (from UniProt P01241 27-217) (ligand)	–
0.13	–	–	L163A human growth hormone (from UniProt P01241 27-217) (ligand)	–
–	63.1	87.7	L98E human prolactin (ligand) MLPICPGGAARCQVTLRDLFDRAVVLSHYIHNLSSEMFSEFDKRYTHGRGFITKAINSCHTSSLATPEDKEQAQQMNQKDFLSLIVSILRSWNEPLYHEVTEVRGMQEAPEAILSKAVEIEEQTKRLLEGMELIVSQVHPETKENEIYPVWSGLPSLQMADEESRLSAYYNLLHCLRRDSHKIDNYLKLLKCRIIHNNNC	–
–	29.5	41	L165E human prolactin (ligand) MLPICPGGAARCQVTLRDLFDRAVVLSHYIHNLSSEMFSEFDKRYTHGRGFITKAINSCHTSSLATPEDKEQAQQMNQKDFLSLIVSILRSWNEPLYHLVTEVRGMQEAPEAILSKAVEIEEQTKRLLEGMELIVSQVHPETKENEIYPVWSGLPSLQMADEESRESAYYNLLHCLRRDSHKIDNYLKLLKCRIIHNNNC	–
–	5.7	8	L171E human prolactin (ligand) MLPICPGGAARCQVTLRDLFDRAVVLSHYIHNLSSEMFSEFDKRYTHGRGFITKAINSCHTSSLATPEDKEQAQQMNQKDFLSLIVSILRSWNEPLYHLVTEVRGMQEAPEAILSKAVEIEEQTKRLLEGMELIVSQVHPETKENEIYPVWSGLPSLQMADEESRLSAYYNELHCLRRDSHKIDNYLKLLKCRIIHNNNC	–
–	5.6	7.8	L95E human prolactin (ligand) MLPICPGGAARCQVTLRDLFDRAVVLSHYIHNLSSEMFSEFDKRYTHGRGFITKAINSCHTSSLATPEDKEQAQQMNQKDFLSLIVSILRSWNEPEYHLVTEVRGMQEAPEAILSKAVEIEEQTKRLLEGMELIVSQVHPETKENEIYPVWSGLPSLQMADEESRLSAYYNLLHCLRRDSHKIDNYLKLLKCRIIHNNNC	–
–	1130	1570	H173E human prolactin (ligand) MLPICPGGAARCQVTLRDLFDRAVVLSHYIHNLSSEMFSEFDKRYTHGRGFITKAINSCHTSSLATPEDKEQAQQMNQKDFLSLIVSILRSWNEPLYHLVTEVRGMQEAPEAILSKAVEIEEQTKRLLEGMELIVSQVHPETKENEIYPVWSGLPSLQMADEESRLSAYYNLLECLRRDSHKIDNYLKLLKCRIIHNNNC	–
–	64.8	90	Y169E human prolactin (ligand) MLPICPGGAARCQVTLRDLFDRAVVLSHYIHNLSSEMFSEFDKRYTHGRGFITKAINSCHTSSLATPEDKEQAQQMNQKDFLSLIVSILRSWNEPLYHLVTEVRGMQEAPEAILSKAVEIEEQTKRLLEGMELIVSQVHPETKENEIYPVWSGLPSLQMADEESRLSAYENLLHCLRRDSHKIDNYLKLLKCRIIHNNNC	–
–	–	–	M158C human prolactin (ligand, Cys 158 disulfide-coupled through a thiol to the dextran polymer of the SPR chip surface, Recombinant, expressed in E. coli) MLPICPGGAARCQVTLRDLFDRAVVLSHYIHNLSSEMFSEFDKRYTHGRGFITKAINSCHTSSLATPEDKEQAQQMNQKDFLSLIVSILRSWNEPLYHLVTEVRGMQEAPEAILSKAVEIEEQTKRLLEGMELIVSQVHPETKENEIYPVWSGLPSLQCADEESRLSAYYNLLHCLRRDSHKIDNYLKLLKCRIIHNNNC	koff [4]: 0.00039 s⁻¹; Kd [5]: 153 nM; kon [6]: 14300 M⁻¹ s⁻¹; stoichiometry (receptors bound to each prolactin) [7]: 2 receptors per prolactin; kon [8]: 2560 M⁻¹ s⁻¹; koff [9]: 0.00157 s⁻¹; Kd [10]: 109 nM
–	1	5	F50E human prolactin (ligand) MLPICPGGAARCQVTLRDLFDRAVVLSHYIHNLSSEMFSEFDKRYTHGRGEITKAINSCHTSSLATPEDKEQAQQMNQKDFLSLIVSILRSWNEPLYHLVTEVRGMQEAPEAILSKAVEIEEQTKRLLEGMELIVSQVHPETKENEIYPVWSGLPSLQMADEESRLSAYYNLLHCLRRDSHKIDNYLKLLKCRIIHNNNC	–
–	–	–	G129C human prolactin (ligand, Cys 129 disulfide-coupled through a thiol to the dextran polymer of the SPR chip surface, Recombinant, E. coli) MLPICPGGAARCQVTLRDLFDRAVVLSHYIHNLSSEMFSEFDKRYTHGRGFITKAINSCHTSSLATPEDKEQAQQMNQKDFLSLIVSILRSWNEPLYHLVTEVRGMQEAPEAILSKAVEIEEQTKRLLECMELIVSQVHPETKENEIYPVWSGLPSLQMADEESRLSAYYNLLHCLRRDSHKIDNYLKLLKCRIIHNNNC	koff [11]: 0.00119 s⁻¹; stoichiometry (receptors bound to each prolactin) [7]: ~1 receptors per prolactin; Kd [12]: 60.5 nM; kon [13]: 19600 M⁻¹ s⁻¹
–	0.03	2.7	ΔF50 human prolactin (ligand) MLPICPGGAARCQVTLRDLFDRAVVLSHYIHNLSSEMFSEFDKRYTHGRGITKAINSCHTSSLATPEDKEQAQQMNQKDFLSLIVSILRSWNEPLYHLVTEVRGMQEAPEAILSKAVEIEEQTKRLLEGMELIVSQVHPETKENEIYPVWSGLPSLQMADEESRLSAYYNLLHCLRRDSHKIDNYLKLLKCRIIHNNNC	–

Source: US6995244 (OHIO STATE UNIVERSITY, dated 2006)
